According to patent US20060257904A1:

Biological target: human recombinant prion protein (hrPrP), amino acid residues 23-231 of human PrPC (human) (UniProt P04156)
Test: cell-based or functional assay

With “α-2 macroglobulin (α2M), purified preparation” the protection of PrP from PK degradation was 4 µg, the protection of PrP from PK degradation in a mixture with tubulin was 16 µg and the protection of PrP from PK proteolysis (immunoblot with mAb 34C9) was 5 µg. The protection of rhuPrP from PK degradation, dose dependence was over 6 µg.
